Test results reported in patent publication US20220324953A1 (JIANGSU HENGRUI MEDICINE, published 2022).
Changes are numbered by the printed parent chain.

T1: Mouse CTGF protein-His tag (mouse, UniProt P29268 26-348)
T1 construct: C-terminal His tag; also called mouse CTGF-his protein; mouse CTGF fusion protein
T1 sequence: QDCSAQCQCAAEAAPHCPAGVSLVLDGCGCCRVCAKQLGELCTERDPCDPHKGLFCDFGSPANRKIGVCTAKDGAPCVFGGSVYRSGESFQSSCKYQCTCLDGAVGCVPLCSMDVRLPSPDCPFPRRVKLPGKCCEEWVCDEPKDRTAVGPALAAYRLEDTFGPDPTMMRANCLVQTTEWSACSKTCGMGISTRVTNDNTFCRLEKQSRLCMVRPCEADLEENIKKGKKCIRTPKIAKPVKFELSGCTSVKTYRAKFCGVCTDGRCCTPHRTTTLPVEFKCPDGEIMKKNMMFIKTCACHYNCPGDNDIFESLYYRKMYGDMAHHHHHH

T2: human CTGF (antigen of the Biacore assays) (human, UniProt P29279 27-349)
T2 construct: also called antigen human CTGF; human CTGF protein
T2 sequence (looked up): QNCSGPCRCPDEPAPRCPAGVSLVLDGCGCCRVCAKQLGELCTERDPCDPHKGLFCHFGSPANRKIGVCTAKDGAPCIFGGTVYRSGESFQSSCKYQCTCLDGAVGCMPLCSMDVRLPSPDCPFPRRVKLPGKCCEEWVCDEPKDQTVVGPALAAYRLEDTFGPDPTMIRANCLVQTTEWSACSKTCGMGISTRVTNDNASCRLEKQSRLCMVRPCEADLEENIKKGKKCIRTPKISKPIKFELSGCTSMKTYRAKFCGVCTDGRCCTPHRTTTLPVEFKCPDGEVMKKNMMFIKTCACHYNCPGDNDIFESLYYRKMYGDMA

B1: Hu164-77wl (antibody, human IgG1, lambda, V domains shown)
VH: EVQLQESGPGLVKPSQTLSLTCTVSGFSISTFGVHWIRQHPGKGLEWIGVIWRRGGTDYNAAFMSRVTISKDTSKNQVSLKLSSVTAADTAVYYCARDGGFDYWGQGTTVTVSS
VL: ETVVTQEPSLTVSPGGTVTLTCRSSIGAVTTSNYANWVQQKPGQAFRGLIGGTSNRAPWTPARFSGSLLGGKAALTLSGVQPEDEAEYYCALWYSTHYVFGGGTKLTVLG
B2: Hu164-57wl (antibody, human IgG1, lambda, V domains shown)
VH: EVTLKESGPVLVKPTETLTLTCTVSGFSLSTFGVHWIRQPPGKALEWLAVIWRRGGTDYNAAFMSRLTISKDTSKSQVVLTMTNMDPVDTATYYCARDGGFDYWGQGTTVTVSS
VL: B1 VL
B3: Hu164-87wl (antibody, human IgG1, lambda, V domains shown)
VH: B1 VH with I48L, V67L, L80F
VL: B1 VL
B4: Hu147-22wk (antibody, human IgG1, kappa, V domains shown)
VH: EVQLVESGGGLVQPGGSLRLSCAASGFTFNTYAMNWVRQAPGKGLEWVARIRTKSNNYATYYADSVKDRFTISRDDSKNSLYLQMNSLKTEDTAVYYCVETGFAYWDQGTLVTVSS
VL: EIVLTQSPATLSLSPGERATLSCSASSSVSYMHWFQQKPGQSPKLLIYSTSNLASGIPARFSGSGSGTDYTLTISSLEPEDFAVYYCQQRSSYPLTFGQGTKLEIKR
B5: Hu147-12wk (antibody, human IgG1, kappa, V domains shown)
VH: B4 VH with N30S, A49G
VL: B4 VL
B6: Hu147-23wk (antibody, human IgG1, kappa, V domains shown)
VH: B4 VH
VL: B4 VL with L46W, I57V
B7: Hu147-21wk (antibody, human IgG1, kappa, V domains shown)
VH: B4 VH
VL: B4 VL with K44R
B8: Hu147-33wk (antibody, human IgG1, kappa, V domains shown)
VH: B4 VH with T28S, K78E, N79S
VL: B4 VL with L46W, I57V
B9: Hu147-32wk (antibody, human IgG1, kappa, V domains shown)
VH: B4 VH with T28S, K78E, N79S
VL: B4 VL
B10: Hu147-31wk (antibody, human IgG1, kappa, V domains shown)
VH: B4 VH with T28S, K78E, N79S
VL: B4 VL with K44R
B11: Hu147-13wk (antibody, human IgG1, kappa, V domains shown)
VH: B4 VH with N30S, A49G
VL: B4 VL with L46W, I57V
B12: Hu147-24wk (antibody, human IgG1, kappa, V domains shown)
VH: B4 VH
VL: DIQMTQSPSSLSASVGDRVTITCSASSSVSYMHWFQQKPGKSPKLLIYSTSNLASGVPSRFSGSGSGTDYTLTISSLQPEDFATYYCQQRSSYPLTFGQGTKLEIKR
B13: Hu147-15wk (antibody, human IgG1, kappa, V domains shown)
VH: B4 VH with N30S, A49G
VL: B12 VL with M4L, L46W
B14: Hu147-11wk (antibody, human IgG1, kappa, V domains shown)
VH: B4 VH with N30S, A49G
VL: B4 VL with K44R
B15: positive control CTGF antibody mAb1 (antibody, V domains shown)
VH: EGQLVQSGGGLVHPGGSLRLSCAGSGFTFSSYGMHWVRQAPGKGLEWVSGIGTGGGTYSTDSVKGRFTISRDNAKNSLYLQMNSLRAEDMAVYYCARGDYYGSGSFFDCWGQGTLVTVSS
VL: DIQMTQSPSSLSASVGDRVTITCRASQGISSWLAWYQQKPEKAPKSLIYAASSLQSGVPSRFSGSGSGTDFTLTISSLQPEDFATYYCQQYNSYPPTFGQGTKLEIKR
notes: Positive control, from CN1829740B; also called pamrevlumab; FG-3019
B16: Hu164-68wl (antibody, human IgG1, lambda, V domains shown)
VH: B2 VH with A44G, A49G, L80F
VL: ETVVTQEPSFSVSPGGTVTLTCRSSIGAVTTSNYANWVQQTPGQAFRGLIGGTSNRAPGVPDRFSGSILGNKAALTITGAQADDESDYYCALWYSTHYVFGGGTKLTVLG
B17: Hu164-69wl (antibody, human IgG1, lambda, V domains shown)
VH: B2 VH with A44G, A49G, L80F
VL: ESVVTQPPSVSGAPGQRVTISCRSSIGAVTTSNYANWVQQLPGTAFKGLIGGTSNRAPGVPDRFSGSKSGTSASLAITGLQAEDEADYYCALWYSTHYVFGGGTKLTVLG

molecular target: T1, Mouse CTGF protein-His tag; test: ELISA, plate coated with mouse CTGF-his
Procedure: The binding activity of anti-mouse CTGF antibody to mouse CTGF protein was tested by ELISA assay. A 96-well microtiter plate was directly coated with the mouse CTGF fusion protein. The signal strength upon the addition of the antibody was used to determine the binding activity of the antibody to mouse CTGF. The specific experimental procedures were as follows:
The mouse CTGF-his protein was diluted with PBS, pH 7.4 (Shanghai Yuanpei, Cat No. B320) buffer to a concentration of 0.5 μg/ml, added into the 96-well microtiter plate (Corning, Cat No. CLS3590-100EA) at 50 μl/well, and incubated in an incubator at 37° C. for 2 hours. The liquid was removed, 250 μl/well blocking solution (5% skim milk (BD skim milk, Cat No. 232100) diluted in PBS) was added, and incubated in an incubator at 37° C. for 3 hours or at 4° C. overnight (16-18 hours) for blocking. After the blocking was finished, the blocking solution was removed, the plate was washed for 3 times with PBST buffer (PBS containing 0.1% Tween-20, pH 7.4), 50 μl/well of various concentrations of each of the test antibodies (antibodies purified from hybridoma or humanized antibodies) diluted with sample dilution solution were added, and incubated in an incubator at 37° C. for 1 hours. After the incubation was finished, the plate was washed for 3 times with PBST, 50 μl/well of HRP-labeled goat anti-mouse secondary antibody (Jackson Immuno Research, Cat No. 115-035-003) or goat anti-human secondary antibody (Jackson Immuno Research, Cat No. 109-035-003) diluted with sample dilution solution was added, and incubated at 37° C. for 1 hour. The plate was washed for 5 times with PBST, 50 μl/well of TMB chromogenic substrate (KPL, Cat No. 52-00-03) was added, incubated at room temperature for 5-10min, and 50 μl/well of 1 M H₂SO₄ was added to stop the reaction. The absorbance value was read by a microplate reader (Molecular Devices, VERSA max) at a wavelength of 450 nm, and the data was analyzed with GraphPad Prism 5. The binding of CTGF antibody to mouse CTGF protein was calculated as EC50 value.

EC50 [pM] | Binder
58 | B1
41 | B2
67 | B3
336 | B4
249 | B5
200 | B6
247 | B7
258 | B8
349 | B9
320 | B10
127 | B11
263 | B12
159 | B13
228 | B14
77 | B15
65 | B16
59 | B17

molecular target: T2, human CTGF (antigen of the Biacore …); test: Biacore, antibody captured on Protein A, CTGF in flow, 1:1 fit
Text: A certain amount of each of the test antibodies was affinity-captured with Protein A biosensor chip (Cat. # 29127556, GE), and then a certain concentration of human or mouse CTGF was allowed to flow through the surface of the chip. The reaction signals were detected in real time with Biacore instrument to generate a binding and dissociation curve. After the dissociation was completed in each cycle, the biosensor chip was washed and regenerated with Glycine-HCl regeneration solution pH 1.5 (Cat. # BR-1003-54, GE). The running buffer for the assay was 1×HBS-EP buffer solution (Cat. # BR-1001-88, GE).

Kd [pM] | koff [s⁻¹] | kon [M⁻¹ s⁻¹] | Binder
343 | 0.0176 | 5.15e+07 | B1
69.1 | 0.00294 | 4.26e+07 | B2
194 | 0.0204 | 1.05e+08 | B3
1010 | 0.0142 | 1.4e+07 | B4
969 | 0.033 | 3.41e+07 | B5
818 | 0.0112 | 1.37e+07 | B6
974 | 0.0162 | 1.66e+07 | B7
713 | 0.0104 | 1.45e+07 | B8
910 | 0.0133 | 1.46e+07 | B9
894 | 0.0159 | 1.78e+07 | B10
808 | 0.024 | 2.97e+07 | B11
1130 | 0.0336 | 2.98e+07 | B14
302 | 0.0116 | 3.84e+07 | B16
322 | 0.028 | 8.71e+07 | B17

molecular target: T2, human CTGF (antigen of the Biacore …); test: Biacore, CTGF immobilised, antibody 150 µg/ml then 50 nM TGF-β1 (competitor TGF-β1)
Procedure: First, the antigen human CTGF was immobilized onto a CMS biosensor chip (Cat. # BR-1005-30, GE) by amino coupling, with an immobilization level of 1500 RU, and then a high concentration of CTGF antibody (150 μg/ml) was allowed to flow through the surface of the chip for 150 s; 50 nM TGF-β1 protein was injected for 120 s, and the reaction signals were detected in real time with the Biacore T200 instrument to generate a binding and dissociation curve. After the dissociation was completed in each of the experimental cycles, the biosensor chip was washed and regenerated with regeneration buffer.
The resulting experimental data were statistically analyzed with GE Biacore T200 Evaluation version 3.0 software.

Function-blocking percentage (%) | Binder
52.3 | B4
51.6 | B5
54.6 | B6
51.6 | B7
57.3 | B8
55.2 | B9
55 | B10
53.3 | B11
52.8 | B12
52.3 | B13
50.8 | B14
41.3 | B15
